# B1: mRNA-splicing (parent)
# chain: AGUUGCUGCUGGGAGCUCCAGCACAGUGAAAUGGACAGAAGGGCAGAGCAA
# Variants of: B1
# Assay: exon inclusion enrichment index; higher = more inclusion; WT1 exon 5 minigene, HEK293
row,Variant,exon inclusion enrichment index
1,G2A,0.419
2,G2A C6A U7A C9A U10A,0.929
3,G2A C6A U7C C9A U10C,4.19
4,G2A G5A C6G U7G C9A,0.0189
5,G2A G5A C6U U7A G8U C9A,0.211
6,G2A G5A U7C G8A U10C,3.39
7,G2A G5C C6A U7C G8A U10A,0.316
8,G2A G5C C6G U7C U10C,3.98
9,G2A G5C C6U G8C C9U U10C,2.9
10,G2A G5U G8U C9U,0.53
11,G2A U3A,0.0502
12,G2A U3A C6A U7A C9A U10A,0.777
13,G2A U3A C6A U7C C9A U10C,2.68
14,G2A U3A G5A C6G U7G C9A,0.00701
15,G2A U3A G5A C6U U7A G8U C9A,0.0687
16,G2A U3A G5A U7C G8A U10C,2.08
17,G2A U3A G5C C6A U7C G8A U10A,0.0895
18,G2A U3A G5C C6G U7C U10C,3.39
19,G2A U3A G5C C6U G8C C9U U10C,1.94
20,G2A U3A G5U G8U C9U,0.155
21,G2A U3C,0.0113

row,Variant,exon inclusion enrichment index
1,G2A U3C C6A U7A C9A U10A,0.648
2,G2A U3C C6A U7C C9A U10C,3.17
3,G2A U3C G5A C6G U7G C9A,0.0183
4,G2A U3C G5A C6U U7A G8U C9A,0.0801
5,G2A U3C G5A U7C G8A U10C,2.1
6,G2A U3C G5C C6A U7C G8A U10A,0.124
7,G2A U3C G5C C6G U7C U10C,3.58
8,G2A U3C G5C C6U G8C C9U U10C,2.03
9,G2A U3C G5U G8U C9U,0.198
10,G2A U3G,0.0392
11,G2A U3G C6A U7A C9A U10A,0.935
12,G2A U3G C6A U7C C9A U10C,2.22
13,G2A U3G G5A C6G U7G C9A,0.00228
14,G2A U3G G5A C6U U7A G8U C9A,0.0498
15,G2A U3G G5A U7C G8A U10C,1.76
16,G2A U3G G5C C6A U7C G8A U10A,0.0866
17,G2A U3G G5C C6G U7C U10C,2.14
18,G2A U3G G5C C6U G8C C9U U10C,1.42
19,G2A U3G G5U G8U C9U,0.0993
20,G2C,0.141
21,G2C C6A U7A C9A U10A,0.788

row,Variant,exon inclusion enrichment index
1,G2C C6A U7C C9A U10C,2.9
2,G2C G5A C6G U7G C9A,0.0065
3,G2C G5A C6U U7A G8U C9A,0.0726
4,G2C G5A U7C G8A U10C,2
5,G2C G5C C6A U7C G8A U10A,0.0904
6,G2C G5C C6G U7C U10C,2.87
7,G2C G5C C6U G8C C9U U10C,1.41
8,G2C G5U G8U C9U,0.122
9,G2C U3A,0.0779
10,G2C U3A C6A U7A C9A U10A,0.863
11,G2C U3A C6A U7C C9A U10C,2.73
12,G2C U3A G5A C6G U7G C9A,0.0159
13,G2C U3A G5A C6U U7A G8U C9A,0.0584
14,G2C U3A G5A U7C G8A U10C,1.93
15,G2C U3A G5C C6A U7C G8A U10A,0.0802
16,G2C U3A G5C C6G U7C U10C,3.34
17,G2C U3A G5C C6U G8C C9U U10C,1.71
18,G2C U3A G5U G8U C9U,0.19
19,G2C U3C,0.044
20,G2C U3C C6A U7A C9A U10A,0.779
21,G2C U3C C6A U7C C9A U10C,2.79

row,Variant,exon inclusion enrichment index
1,G2C U3C G5A C6G U7G C9A,0.0355
2,G2C U3C G5A C6U U7A G8U C9A,0.0956
3,G2C U3C G5A U7C G8A U10C,2.27
4,G2C U3C G5C C6A U7C G8A U10A,0.119
5,G2C U3C G5C C6G U7C U10C,3.45
6,G2C U3C G5C C6U G8C C9U U10C,1.91
7,G2C U3C G5U G8U C9U,0.29
8,G2C U3G,0.163
9,G2C U3G C6A U7A C9A U10A,1.14
10,G2C U3G C6A U7C C9A U10C,3.19
11,G2C U3G G5A C6G U7G C9A,0.00533
12,G2C U3G G5A C6U U7A G8U C9A,0.0859
13,G2C U3G G5A U7C G8A U10C,2.64
14,G2C U3G G5C C6A U7C G8A U10A,0.148
15,G2C U3G G5C C6G U7C U10C,2.57
16,G2C U3G G5C C6U G8C C9U U10C,1.98
17,G2C U3G G5U G8U C9U,0.38
18,G2U,0.476
19,G2U C6A U7A C9A U10A,1.36
20,G2U C6A U7C C9A U10C,4.3
